Values of other authors, collected in publication PMC2409454.

Molecular target: pRb (Homo sapiens) (UniProt P06400)
Sequence of UniProt P06400 (P06400 2-928): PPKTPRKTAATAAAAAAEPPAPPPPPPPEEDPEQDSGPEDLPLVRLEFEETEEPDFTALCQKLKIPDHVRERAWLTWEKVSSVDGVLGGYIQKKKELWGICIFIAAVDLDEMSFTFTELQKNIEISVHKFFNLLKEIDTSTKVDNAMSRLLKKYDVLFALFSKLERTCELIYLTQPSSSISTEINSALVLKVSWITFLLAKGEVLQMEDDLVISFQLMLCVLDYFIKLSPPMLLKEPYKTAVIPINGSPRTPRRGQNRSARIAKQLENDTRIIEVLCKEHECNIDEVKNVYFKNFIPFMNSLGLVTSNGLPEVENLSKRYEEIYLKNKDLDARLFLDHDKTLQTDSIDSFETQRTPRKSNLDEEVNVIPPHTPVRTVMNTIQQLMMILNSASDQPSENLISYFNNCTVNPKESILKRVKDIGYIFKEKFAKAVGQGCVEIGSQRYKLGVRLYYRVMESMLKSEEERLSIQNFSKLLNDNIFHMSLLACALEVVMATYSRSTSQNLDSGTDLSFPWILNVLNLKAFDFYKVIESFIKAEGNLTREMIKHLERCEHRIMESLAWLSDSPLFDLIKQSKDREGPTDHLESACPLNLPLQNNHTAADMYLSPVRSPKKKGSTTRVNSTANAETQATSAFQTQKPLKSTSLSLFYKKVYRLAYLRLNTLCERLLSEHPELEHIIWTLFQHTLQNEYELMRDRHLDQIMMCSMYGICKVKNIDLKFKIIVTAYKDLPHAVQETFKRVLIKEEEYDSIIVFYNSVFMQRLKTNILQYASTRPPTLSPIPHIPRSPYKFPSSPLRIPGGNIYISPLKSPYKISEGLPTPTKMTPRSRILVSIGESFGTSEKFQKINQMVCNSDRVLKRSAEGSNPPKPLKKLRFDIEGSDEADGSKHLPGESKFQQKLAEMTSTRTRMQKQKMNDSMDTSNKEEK

In the case of E7 (from UniProt P03129), the Kd is listed as 4.5 nM.
